Results on two molecules are retold here after paper doi:10.1101/2023.05.01.538930 (bioRxiv, 2023).

Series [1] has as its target T1, GajA of the Gabija system from Bacillus cereus VD045 (Bacillus cereus VD045, UniProt J8H9C1 1-578).
T1 sequence (looked up): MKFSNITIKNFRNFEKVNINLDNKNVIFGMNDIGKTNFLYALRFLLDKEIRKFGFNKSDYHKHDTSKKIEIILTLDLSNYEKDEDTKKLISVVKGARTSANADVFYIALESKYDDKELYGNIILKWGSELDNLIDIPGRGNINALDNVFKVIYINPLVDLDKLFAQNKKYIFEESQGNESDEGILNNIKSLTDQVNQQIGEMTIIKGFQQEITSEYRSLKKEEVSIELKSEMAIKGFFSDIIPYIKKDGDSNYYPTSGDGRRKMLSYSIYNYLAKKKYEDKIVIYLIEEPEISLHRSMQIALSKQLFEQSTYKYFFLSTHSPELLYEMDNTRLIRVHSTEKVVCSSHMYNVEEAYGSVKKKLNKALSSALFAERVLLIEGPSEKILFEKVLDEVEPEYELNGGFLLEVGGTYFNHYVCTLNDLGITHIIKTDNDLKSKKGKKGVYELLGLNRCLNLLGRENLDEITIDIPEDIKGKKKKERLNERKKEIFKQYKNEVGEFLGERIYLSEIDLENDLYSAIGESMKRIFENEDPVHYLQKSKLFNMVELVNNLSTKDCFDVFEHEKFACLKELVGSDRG
In words: reconstitution of the complex from purified proteins.

Series [2] concerns the molecule itself. In words: crystal structure.

B1: GajB of the Gabija system from Bacillus cereus VD045 (natural protein, UniProt J8HQ06 1-494, looked up)
chain: MSREQIIKDGGNILVTAGAGSGKTTILVSKIEADLKENKTHYSIAAVTFTNKAAKEIEGRLGYSSRGNFIGTNDGFVESEIIRPFIKDAFGNDYPDNFTAEYFDNQFASYDKGLQVLKYQNILGTYSNPKKNFKFQLALDILKKSLVARQYIFSKYFKIFIDEYQDSDKDMHNLFMYLKDQLKIKLFIVGDPKQSIYIWRGAEPENFNGLIENSTDFNKYHLTSNFRCCQDIQNYSNLFNEETRSLIKEKNEVQNVISIADDMPISDILLKLTEEKQVLNIEAELVILVRRRNQAIEIMKELNEEGFNFIFIPQTPLDRATPNATLLKEVIKYVKNDRYSIYDLAAEIVGNLSSREIKEIQKIINELLVPNINQVLINQVLINLFAKLEITLDTREITAFTEVMMTNEFDIAFDTNEYLHKIFTVHSAKGLEFNQVIITASDYNVHYNRDTNEHYVATTRAKDKLIVIMDNKKYSDYIETLMKELKIKNIIKSI
On to B1, for which the binding result in series [1] is “binds”.

B2: Tad2 from phage SPO1 (construct for crystallization) (natural protein, Bacillus phage SPO1)
chain: MKTKMSFGEALEVLKQGMQVYRSGWNGKNMFLFLKSSDALASDFGFGFGEYINEPVFGNIIFIKTADNKIHAWVPSQTDVLAEDWDIVS
A word on the stoichiometry N: it is the number of molecules, sites or subunits per partner or assembly. With B2, the “stoichiometry N” value in series [2] was 4.
